Assay results published in a protein production outcome set (Wang et al. 2014).

Assay: label from the status in PepcDB records
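Also: failed if final PepcDB status was selected cloned or expressed and not failed if soluble or beyond.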

Row | Sequence | protein production
1 | MSLAEPRYKADIGGGSLKLPESRIIAGLLLEGVTEDQWRHAIEVENVLQRRSPGTAKRQSSLMRNRLETMGPELWQMVRDGSTQVAIQAVFAAAIKHSTLLGDFLDLVVRDQFRMFRPDLPRKMWDQYLEQCRNRDPLMPVWQDSTANKLADCVYRILVEVGYITDSKTYRLKSVRISGEVMSYLRENNEQYVIRCIQVSIEGHHHHHH | not failed
2 | MDKNEIGLNAGKVWQLLSNNDKWSYGNLKKKSGLKDKDLGAALGWLAREDKIEFEQEEEELYVYLCVNVYIGLEHHHHHH | failed
3 | MSMKKQFALFSTLLLLGSSMPVGAFAEGNNLVAENSSVAETTAEATTAEATETTATSETTEATEESTTETESSTESSESATTESTETSGTETTDSTTDSTSTSTTESTTDSTSTSTTESTTDSTSTSTTESSTTPTTTPSSSKEQPKPGTSTSESKQPAKPVTPTAPAEKPVEQPAASTPQPEIVPPVTNETVGLVEDDETFTVSKTKKTEEFIQEIGESARKVAKDKNLYASVMIAQAILESGSGNSKLSQKPNYNLFGIKGDYKGQSVSFITYEDNGFGNLYTVEAKFRQYPTYKESMEDYAKLLKNGLDSNKDFYHGVWKTEAKSYKEATRFLTGKYATDKDYHKKLNALIKTYDLTYYDKEKATVEPMESNFPAYNGKNYDTFNSYAWGNCTQYVYNRITQLGKRVDLTMGNGQDWGETGRARGYKVSRTPKAGAAVSFPAGVLGADNTYGHVAFVEKVFKDGSILISEMNVKGLNVVSTRTISADETHLMNYIVPKDK | failed
4 | MFVEVFIVGLLAGMSPGPDFFIVMKNSLGFGARVGILTSLGIASALIVHITYTVLGFAFLIETYPALFFTIQLLGAAYLIWLGFHAIRSSPPKKEEAEIEETQPIQSTKDSKSSIQGFKEGFITNLLNPKAALFFLSIFSQFITPQTADWVRWMYGLEVVVAVGLWFSFLAIFISYKHFRRFYQTHSYWFDRFLGAALLFFAIRIIIGAF | failed
5 | MATATETSKATTKTQASAAADRESLTVSRAFNAPRDLVFQAWSAAEHLKHWFCPQGFTIPECEVEFRPGGKFDLWMRSLDGNYSHWIRGHYVEIIPHSRLVLDMTVVTEAGVALFNANTSVTFETVCGGTEMSVTQRYTALDPSAGNFTRGAEEGWAQTLDRLEKEVARIAAATPARSVAHGVFTIERTYDASPELVFRALSDPVAKAQWFNGGPGYTEVKRTMDVRPGGREHLQGRWENGLVSTFDAVYFDVIPNERLVYSYEMHMGERKISVSLATFELKRAGQGTRLVMTEQGAFLDGYDDAGSREHGSGLLLDAIGEWLKAMTKR | failed
6 | MTQRKVYAPVPVMVAGIAIIATRFLGILLLVWELGLSDLSGWIGSNAEAWDSTLVLLLSLIIVGVEIRCGFAVLAGVNWGRWGYIACQGVVVCYLLLASLSEFMPAIFHISGENHAAVLHQLLMQKIPDLLVIVLLFLPRRSKRFFLRQK | failed
7 | MPIITKNTDTTCQTPPLLSIICPAYNQEAFVAQALDGFLSQQTRFNYEILINDDASTDGTARIIAQYAERHPTIIRAFYQQVNQYSQGLPCVPDLFAEARGRYIAYCEADDYWTDPRKLQLQVDFLESHPDYVITYHDAVAFDENGEYGVQLQGHLRADATALELQQARRLSTLTTCFRNVFSTMPPELNIRVAPLNDMCWWSLLGAHGKGKFMADIKPAAYRLHAGGVFSMRSDKRKLHMNLQTCSSLANYYNLQGNQALYEYFLMQTVCLSLAALTPSHKLQTLWQVASNVVVNLGRRLLPTTGKAHVQ | failed
8 | MSKKQKSKYIVIFGCGRLGSLIANLASSSGHSVVVVDKNEYAFHRLNSEFSGFTVVGDAAEFETLKECGMEKADMVFAFTNDDSTNFFISMNARYMFNVENVIARVYDPEKIKIFEENGIKTICPAVLMIEKVKEFIIGSEED | not failed
9 | MLKERLKAFFSADSVFTLIFALFFLTSFKKPLTQVLLIVLMVFLFFRCYFQASLKETFAINHLKTMSFKWLTLAFLGVFLSIFPNMFNMHDSQTFRYNLFALNMSLTYACGALCLLFASCLRIKLNQKILFYSMAVANFINGLLSLVQKIYFNMPRAQGFSTVKEYVVLVSVSILGCYIYALYSHNQKEKLFFTLSVFVGFLVVILSATRSATIAFVITFLILSCFILYAKKSLKPLGYMVVVSLILSALYVGSNALEKKGAIEQSRVQNQSFEEDLKRYAKKDADSSIGWRLERWKEALTVLRLRPFFGMAASEKCQRLEEILSLSKSYRAKDLILCYERYDNQIIHILATRGIIGFLIWLFFLLVIVKIFWSGIKQNSLISFFILMTLAFYLIFGIGFDPFDFFITGSFFVGMIMMAVFLKKDKSAF | failed
